These results are taken from publication PMC3866869.

Holding throughout (experiment): crystal structure; hanging drop; protein in 25 mM HEPES pH 7.5, 150 mM NaCl, 5% glycerol with 5 mM glutamate or 1 mM KA, mixed 1:1 with reservoir (19-27% PEG 4000, 0-9% propan-2-ol, 80 mM sodium acetate); data collected at 100 K; LBD dimer, one (I222) or two (P212121) dimers in the asymmetric unit
Experiment [1] addresses GluK2 R775A ligand-binding domain (rat) (UniProt P42260).
For experiment [2], the target named is GluK2 K531A-T779G ligand-binding domain (rat) (UniProt P42260).
The target of experiment [3] is GluK2 K531A ligand-binding domain (rat) (UniProt P42260).

Turning to “GluK2 R775A ligand-binding domain (from UniProt P42260 32-544; P42260 667-908) (domain or fragment)”, the stoichiometry N in experiment [1] was found to be 2. In experiment [2], “GluK2 K531A-T779G ligand-binding domain (from UniProt P42260 32-544; P42260 667-908) (domain or fragment)” returned a stoichiometry N of 2. “GluK2 K531A ligand-binding domain (from UniProt P42260 32-544; P42260 667-908) (domain or fragment)” came in with a stoichiometry N in experiment [3] of 2.
